Legend:
Conditions in all cases: reference: wild-type YFP-p120-1A; sites Y335
cortactin = cortactin (UniProt Q14247); experiment: anti-YFP immunoprecipitation, cortactin blot
VAV2 (endogenous) = VAV2 (endogenous) (UniProt P52735); experiment: anti-YFP immunoprecipitation, VAV2 blot
E-cadherin = E-cadherin (UniProt P12830); experiment: anti-YFP immunoprecipitation, E-cadherin blot

binding against the reference (cortactin): weaker
binding against the reference (VAV2 (endogenous)): weaker
binding against the reference (E-cadherin): stronger
Substance: p120-1A (transfected YFP- or HA-tagged) (from UniProt P30999) Y335F
